The text below walks through data of patent US9278119B2, “Treatment of prostate cancer and a method for determining the prognosis for prostate cancer patients” (WNTRESEARCH AB, priority 2011, dated 2016).

Where no end group is shown, it is not given here. The star is where a group is joined. For = O=C*

The test system of assay [1] is DU145 cells. Description: Matrigel invasion assay, DU145 cells. It is filed as cell-based, human. Particulars: 24 h. The protocol: (§1) Four human PCa cell lines LNCaP, 22Rv1, PC-3, and DU145 were purchased from American Type Culture Collection [ATCC] (Manassas, Va.). The immortalized PNT2 normal human prostate epithelial cells (cat No. 95012613) were obtained from European Collection of Cell Cultures (ECACC), (Sigma-Aldrich, St. Louis, Mo.). LNCaP, 22Rv1, DU145 and PNT2 cells lines were cultured in RPMI-1640 medium, supplemented with 10% fetal bovine serum (FBS) and 1% pest (penicillin and streptomycin). PC-3 cells were grown in Hyclone Ham's F12 medium supplemented with 10% FBS and 1% pest. All in vitro experiments were performed when cells were ˜70% confluent. For invasion assay experiments cells were grown in serum free medium (SFM) for 24 hours. RPMI-1640 medium (R0883), FBS (F6178), penicillin streptomycin (P0781) were purchased from Sigma-Aldrich, whereas Ham's F12 medium (SH30026.01) was obtained from Thermo-Scientific (Waltham, Mass.). All cell lines were regularly tested for the absence of mycoplasma infection.
(§2) Cell invasion capacities were measured in a standard commercial invasion assay. In this study the inventors used BD BioCoat™ Matrigel™ Invasion Chambers (BD Biosciences, Bedford, Mass.) in accordance with the manufacturer's protocol. […] Invaded cells were counted either in an 460 inverted microscope or in Olympus BX51 Fluorescence Microscope (Olympus optical Co. Ltd, Japan).

Assay [2] has as its system 22Rv1 cells. The assay is described as follows: Matrigel invasion assay, 22Rv1 cells. It counts as cell-based, human. Particulars: 24 h. The protocol:
as §1, §2

In assay [3] the test system is PC3 cells. Description: Matrigel invasion assay, PC3 cells. Particulars: rWnt5a 0.4 μg/ml, 24 h, vs vehicle; FIG. 3B. It is filed as cell-based, human. The protocol:
as §1, §2

In assay [4] the test system is PC3 cells. To be noted: addition of rWnt5a to PC3 cells; report by Wang et al [26]; cited from earlier work.
The test system of assay [5] is LNCaP cells. Description: Matrigel invasion assay, LNCaP cells. It is filed as cell-based, human. To be noted: rWnt5a 0.4 μg/ml, 24 h, vs vehicle; FIG. 3B. The protocol:
as §1, §2

Consider “formylated derivative of MDGCEL (SEQ. ID. NO. 2) (For-MDGCEL; listed as Homo sapiens) [Foxy-5, the N-formylated hexapeptide Foxy5, Wnt5a derived peptide]”, for which the relative invasion result is on record as “significantly inhibited the invasion” in assay [1] (Foxy-5 100 microM, FIG. 6B) and “significantly inhibited the invasion” in assay [2] (Foxy-5 100 microM, FIG. 6A).

B1: rWnt5a: recombinant Wnt5a protein (rWnt5a, R&D Systems, Minneapolis, Minn.) (protein, UniProt P41221 62-380, looked up)
Protein Wnt-5a: IIGAQPLCSQLAGLSQGQKKLCHLYQDHMQYIGEGAKTGIKECQYQFRHRRWNCSTVDNTSVFGRVMQIGSRETAFTYAVSAAGVVNAMSRACREGELSTCGCSRAARPKDLPRDWLWGGCGDNIDYGYRFAKEFVDARERERIHAKGSYESARILMNLHNNEAGRRTVYNLADVACKCHGVSGSCSLKTCWLQLADFRKVGDALKEKYDSAAAMRLNSRGKLVQVNSRFNSPTTQDLVYIDPSPDYCVRNESTGSLGTQGRLCNKTSEGMDGCELMCCGRGYDQFKTVQTERCHCKFHWCCYVKCKKCTEIVDQFVCK
Turning to B1, the relative invasion result in assay [3] is “Neither the LNCaP nor the PC3 cells did respond”; in assay [1] (rWnt5a 0.4 μg/ml, vs vehicle, p<0.0001, FIG. 3B), “decreased the invasive behavior”; in assay [5], “Neither the LNCaP nor the PC3 cells did respond”; in assay [2] (rWnt5a 0.4 μg/ml, vs vehicle, p=0.0001, FIG. 3B), “decreased the invasive behavior”. For the same molecule, the “response in migration wound scratch assay” value in assay [4] was “did not respond”.
